Source: patent publication US20230183713A1, “SITE-SPECIFIC RECOMBINASES FOR EFFICIENT AND SPECIFIC GENOME EDITING” (TECHNISCHE UNIVERSITÄt DRESDEN, published 2023)
Where a chain is given by its changes, count along the chain named. In names and notes the source's numbering stands.

Legend:
[1] = target: T1, Vika recombinase monomer with Q330R mutation
T1 chain: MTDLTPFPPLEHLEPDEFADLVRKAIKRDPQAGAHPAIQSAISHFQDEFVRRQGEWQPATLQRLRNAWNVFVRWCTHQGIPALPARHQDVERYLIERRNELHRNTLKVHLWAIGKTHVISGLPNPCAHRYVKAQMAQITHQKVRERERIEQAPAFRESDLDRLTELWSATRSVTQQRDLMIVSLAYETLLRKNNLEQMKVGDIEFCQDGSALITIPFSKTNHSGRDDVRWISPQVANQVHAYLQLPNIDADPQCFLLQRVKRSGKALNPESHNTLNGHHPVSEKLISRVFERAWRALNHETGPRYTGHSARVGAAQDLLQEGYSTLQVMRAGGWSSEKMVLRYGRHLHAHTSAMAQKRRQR

[2] = target: T2, Cre recombinase monomer with K201P mutation
T2 chain: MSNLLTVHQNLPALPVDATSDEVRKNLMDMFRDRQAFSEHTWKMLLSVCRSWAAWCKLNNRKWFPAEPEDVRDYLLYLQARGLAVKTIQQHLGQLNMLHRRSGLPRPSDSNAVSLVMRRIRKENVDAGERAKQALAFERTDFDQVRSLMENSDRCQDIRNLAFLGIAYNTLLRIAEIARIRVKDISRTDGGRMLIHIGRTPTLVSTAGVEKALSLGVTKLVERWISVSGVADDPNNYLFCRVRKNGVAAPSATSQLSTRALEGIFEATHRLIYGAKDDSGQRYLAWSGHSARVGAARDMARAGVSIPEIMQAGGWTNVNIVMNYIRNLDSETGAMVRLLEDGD

[3] = target: T3, Cre recombinase monomer with W315I mutation
T3 chain: T2 chain with P201K, W315I

[4] = target: T4, Cre recombinase monomer with R292G mutation
T4 chain: T2 chain with P201K, R292G

[5] = target: T5, Cre recombinase monomer with Q311R mutation
T5 chain: T2 chain with P201K, Q311R

[6] = target: T6, Cre recombinase monomer with Y324C mutation
T6 chain: T2 chain with P201K, Y324C

[7] = target: T7, Cre recombinase monomer with K201I mutation
T7 chain: T2 chain with P201I

[8] = target: T8, Cre recombinase monomer with K201R mutation
T8 chain: T2 chain with P201R

[9] = target: T9, Cre recombinase monomer with W315R mutation
T9 chain: T2 chain with P201K, W315R

[10] = target: T10, Cre recombinase monomer with W315T mutation
T10 chain: T2 chain with P201K, W315T

[11] = target: T11, Cre recombinase monomer with Y324F mutation
T11 chain: T2 chain with P201K, Y324F

B1: Vika recombinase monomer with K219R mutation (protein)
chain: T1 chain with K219R, R330Q
recombination on vox excision substrate in E. coli [1]: A similar activity profile (although with some loss of activity) was seen when Vika^K219R and Vika^Q330R were co-expressed on the vox target sequence

B2: Cre recombinase monomer with K201D mutation (protein)
chain: T2 chain with P201D
Median dimer activity (recombination on loxP) [2]: 70%

B3: Cre recombinase monomer with K201Q mutation (protein)
chain: T2 chain with P201Q
Median dimer activity (recombination on loxP) [3]: 30% | Median dimer activity (recombination on loxP) [4]: 58% | Median dimer activity (recombination on loxP) [5]: 94%

B4: Cre recombinase monomer with K201F mutation (protein)
chain: T2 chain with P201F
Median dimer activity (recombination on loxP) [6]: 98% | Median dimer activity (recombination on loxP) [7]: 72% | Median dimer activity (recombination on loxP) [8]: 59% | Median dimer activity (recombination on loxP) [9]: 29% | Median dimer activity (recombination on loxP) [10]: 41% | Median dimer activity (recombination on loxP) [11]: 54% | Median dimer activity (recombination on loxP) [5]: 94%

B5: Cre double mutant CreK201R+Q311R (both mutations in the same monomer) (protein)
chain: T2 chain with P201R, Q311R
recombination on loxP excision substrate in E. coli: showed no observable recombination of the loxP target sequence
